Laboratory results reported in PMC12350170, “Structural basis for the synergistic assembly of the snRNA export complex” (Nature Structural & Molecular Biology, 2025).
Where a chain is given by its changes, count along the chain named. Names and notes keep the numbering of the source.

Legend:
Conditions in all cases: both partners purified
[1] = molecular target: T1, CBP80ΔNLS (subunit of the human CBC) (human, UniProt Q09161 20-790); test: cryo-EM structure; snRNA export complex of CBC, CK2-phosphorylated PHAX, CRM1, Ran(Q69L)GTP and 14-nt capped RNA, purified on Superdex 200 Increase; Titan Krios 300 kV
T1 construct: CBP80 (NCBP1), human, lacking the N-terminal 19 residues; Stood in the assay as part of CBC; made a molecule of its own for the contacts seen in the structure; also called NCBP1; source: High Five insect cells; purified together with CBP20 as CBC
T1 sequence (looked up): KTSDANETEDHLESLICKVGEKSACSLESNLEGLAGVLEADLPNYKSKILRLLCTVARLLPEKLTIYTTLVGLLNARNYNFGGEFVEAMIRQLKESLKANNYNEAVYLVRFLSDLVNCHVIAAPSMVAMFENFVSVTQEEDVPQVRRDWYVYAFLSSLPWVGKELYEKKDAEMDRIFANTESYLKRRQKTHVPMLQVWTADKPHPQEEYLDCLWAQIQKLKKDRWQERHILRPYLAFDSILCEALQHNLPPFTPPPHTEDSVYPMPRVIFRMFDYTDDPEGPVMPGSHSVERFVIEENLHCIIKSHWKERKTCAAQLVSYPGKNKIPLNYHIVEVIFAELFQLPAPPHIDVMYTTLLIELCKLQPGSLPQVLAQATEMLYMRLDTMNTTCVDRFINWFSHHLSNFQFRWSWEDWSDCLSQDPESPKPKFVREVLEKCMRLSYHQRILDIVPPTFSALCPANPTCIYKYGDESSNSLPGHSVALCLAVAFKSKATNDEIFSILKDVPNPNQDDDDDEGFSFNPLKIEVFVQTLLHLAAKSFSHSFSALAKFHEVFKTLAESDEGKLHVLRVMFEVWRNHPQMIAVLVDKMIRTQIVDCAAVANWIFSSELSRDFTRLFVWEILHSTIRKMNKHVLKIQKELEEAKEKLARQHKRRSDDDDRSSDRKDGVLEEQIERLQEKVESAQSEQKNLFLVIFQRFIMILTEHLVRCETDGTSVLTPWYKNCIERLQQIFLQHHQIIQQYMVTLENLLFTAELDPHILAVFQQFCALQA

[2] = molecular target: T2, Human full-length PHAX, phosphorylated in vitro by CK2 (human, UniProt Q9H814 1-394, phosphorylated by CK2 in vitro: between 3 and 5 phosphorylated sites, up to four within ST2 (residues 64–76); the positions are not given); test: as above
T2 construct: PHAX (Phosphorylated Adaptor for RNA Export), human, 394 amino acid residues; also called P-PHAX; phosphorylated PHAX; source: E. coli BL21Star (DE3), pETM11, purified (Ni2+-chelating Sepharose, heparin, Superdex 200); then treated with CK2 and ATP

[3] = molecular target: T3, Human nuclear cap-binding complex (CBC): CBP80ΔNLS with CBP20 (human, UniProt Q09161 20-790; P52298 1-156); test: SEC; Superdex 200 Increase 3.2/300; 180 pmol CBC and 360 pmol PHAX construct, CRM1 and RanGTP mixed with 100 μM capped 14-nt RNA (or U1 snRNA), 1 mM Mg2+, 1 mM KCl, 100 μM GTP, 30 min on ice; fractions on SDS-PAGE
T3 construct: CBP80 (NCBP1), human, CBP80ΔNLS lacking the N-terminal 19 residues; CBP20 (NCBP2), human; also called CBP80–CBP20; source: CBP80ΔNLS in High Five insect cells, CBP20 in E. coli BL21Star (DE3); pellets lysed together, purified (Ni2+-chelating Sepharose, TEV, heparin, Superdex 200)
T3 sequence 1: T1 sequence (looked up)
T3 sequence 2: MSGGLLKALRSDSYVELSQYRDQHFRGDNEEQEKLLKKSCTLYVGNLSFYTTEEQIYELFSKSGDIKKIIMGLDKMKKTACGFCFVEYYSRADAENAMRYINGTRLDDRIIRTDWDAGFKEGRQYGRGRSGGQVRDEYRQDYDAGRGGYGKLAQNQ

Human CRM1 = molecular target: T4, Human CRM1 (human, UniProt O14980 1-1071); test: as above
T4 construct: CRM1 (XPO1), human; also called XPO1; exportin CRM1; source: E. coli Tg1, pQE60, purified (Ni2+-chelating Sepharose, heparin, Superdex 200)

[4] = molecular target: Human Ran Q69L bound to GTP (human, UniProt P62826 1-216, Q69L); test: as above
[5] = molecular target: T3, Human nuclear cap-binding complex …; test: ITC; 25 °C, PEAQ-ITC; 0.2–0.25 mM PHAX 103–196 or mutant injected into 20 µM CBC in the presence or absence of 0.1 mM m7GTP or m7GpppG; 20 mM Tris pH 8.0, 100 mM NaCl, 2% glycerol; one-site model

T4 sequence (O14980 whole entry): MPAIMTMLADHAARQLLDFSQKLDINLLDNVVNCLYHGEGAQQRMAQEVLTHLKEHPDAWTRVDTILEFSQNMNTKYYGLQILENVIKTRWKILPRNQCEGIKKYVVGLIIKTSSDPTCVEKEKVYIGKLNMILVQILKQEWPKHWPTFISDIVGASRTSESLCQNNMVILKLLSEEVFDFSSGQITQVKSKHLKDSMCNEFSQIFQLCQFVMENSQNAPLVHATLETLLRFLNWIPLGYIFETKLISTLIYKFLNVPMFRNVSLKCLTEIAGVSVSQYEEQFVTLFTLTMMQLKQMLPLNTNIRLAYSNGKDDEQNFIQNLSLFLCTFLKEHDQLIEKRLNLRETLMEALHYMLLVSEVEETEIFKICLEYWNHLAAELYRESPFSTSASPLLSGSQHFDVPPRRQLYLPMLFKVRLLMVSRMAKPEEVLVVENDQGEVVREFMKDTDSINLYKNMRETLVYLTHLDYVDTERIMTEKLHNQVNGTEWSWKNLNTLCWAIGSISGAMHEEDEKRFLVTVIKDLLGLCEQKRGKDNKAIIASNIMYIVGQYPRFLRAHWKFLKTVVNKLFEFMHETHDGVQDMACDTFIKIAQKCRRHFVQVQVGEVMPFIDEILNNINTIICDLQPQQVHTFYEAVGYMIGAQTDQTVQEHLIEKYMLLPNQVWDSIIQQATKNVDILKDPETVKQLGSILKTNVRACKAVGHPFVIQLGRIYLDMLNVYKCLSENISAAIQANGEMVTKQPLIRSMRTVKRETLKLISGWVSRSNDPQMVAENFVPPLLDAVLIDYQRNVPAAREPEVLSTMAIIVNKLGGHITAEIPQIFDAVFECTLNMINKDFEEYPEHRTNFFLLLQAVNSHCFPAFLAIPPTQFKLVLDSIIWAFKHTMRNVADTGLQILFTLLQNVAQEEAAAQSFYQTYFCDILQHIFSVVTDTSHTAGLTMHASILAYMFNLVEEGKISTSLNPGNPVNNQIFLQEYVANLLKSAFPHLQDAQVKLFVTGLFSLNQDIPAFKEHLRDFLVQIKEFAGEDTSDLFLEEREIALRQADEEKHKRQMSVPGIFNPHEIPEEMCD
T2 sequence (Q9H814 whole entry, the tested form may be a part): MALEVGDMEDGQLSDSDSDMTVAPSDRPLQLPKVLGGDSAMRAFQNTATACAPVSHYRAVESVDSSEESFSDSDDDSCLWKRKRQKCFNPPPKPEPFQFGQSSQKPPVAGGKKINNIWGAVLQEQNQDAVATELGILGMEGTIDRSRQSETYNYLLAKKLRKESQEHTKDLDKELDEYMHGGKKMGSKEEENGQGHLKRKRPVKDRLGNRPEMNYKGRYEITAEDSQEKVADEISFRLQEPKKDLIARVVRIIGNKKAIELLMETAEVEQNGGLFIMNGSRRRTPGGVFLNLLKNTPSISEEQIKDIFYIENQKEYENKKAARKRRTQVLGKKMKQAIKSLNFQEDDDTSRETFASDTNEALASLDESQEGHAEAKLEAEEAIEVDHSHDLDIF

B1: CBP20 (subunit of the human CBC) (natural protein)
chain: T3 sequence 2
notes: CBP20 (NCBP2), human; Stood in the assay as part of CBC; made a molecule of its own for the contacts seen in the structure; also called NCBP2; source: E. coli BL21Star (DE3), pETM30; purified together with CBP80ΔNLS as CBC
binding result [1]: binds | binding result [2]: binds

B2: MBP-PHAX103–196 (wild type) (domain or fragment, human, UniProt Q9H814 103-196, looked up)
chain: SQKPPVAGGKKINNIWGAVLQEQNQDAVATELGILGMEGTIDRSRQSETYNYLLAKKLRKESQEHTKDLDKELDEYMHGGKKMGSKEEENGQGH
notes: source: E. coli BL21Star (DE3), pETM41, purified (Ni2+-chelating Sepharose, Superdex 200); not shown: MBP, N-terminal, kept
binding result [3]: binds | binding result (Human CRM1): binds | binding result [4]: binds

B3: MBP-PHAX103–196 Y154A (domain or fragment, human, UniProt Q9H814 103-196, looked up)
chain: B2 chain with Y52A
notes: as for B2
binding result [3]: binds

B4: MBP-PHAX103–196 R147E, Y152E, Y154E (domain or fragment, human, UniProt Q9H814 103-196, looked up)
chain: B2 chain with R45E, Y50E, Y52E
notes: as for B2
binding result [5]: binds
